Experimental data taken from the supplement of paper PMC12764529.
± gives the half width of the 95% confidence interval.

What was measured:
[1] = folding stability dG unfold (combined trypsin and chymotrypsin); higher = more stable
In short: (§1)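 Bayesian fitting of sequencing counts gave K50 for each design. Unfolding free energy followed by setting this against a sequence-predicted unfolded-state K50 and a shared folded-state K50, either per protease or with trypsin and chymotrypsin combined. The designs, under 80 residues and lacking cysteine, were digested in a PA-tagged cDNA display format at 11 threefold-diluted protease concentrations and without protease, and only those with AlphaFold2 dimer inter-PAE above 15 were kept.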

[2] = folding stability dG unfold from trypsin proteolysis; higher = more stable
In short: as §1

[3] = folding stability dG unfold from chymotrypsin proteolysis; higher = more stable
In short: as §1

Sequence	folding stability dG unfold [1] [kcal/mol]	folding stability dG unfold [2] [kcal/mol]	folding stability dG unfold [3] [kcal/mol]
SAGKKTIIIKIPPNMTVEELKKALKNLKPNEKVTITVNGKKYTITVKDGKIKITFPENVKNMILIIEVKSAG [r5_373_TrROS_Hall]	2.4 ± 0.36	2.08 ± 0.13	2.54 ± 0.057
SAGGSAGGPPDIVTLPIWIGGLKVEIMVYPDGSVTIMFRFPDWYYMITFPLKNGKIEIEWVPLKSAGGSAGG [r6_555_TrROS]	3.35 ± 0.22	3.16 ± 0.11	3.54 ± 0.1
SISITLPDGTKTVSQSFNPEGNTITYTMEAPGKKITITLTEKVVGGSKEISVKITTDPVPLTPEEVAALKAS [r1_154_JUSTAS]	1.86 ± 0.12	2.03 ± 0.13	1.94 ± 0.085
SAGGSAGGKIPPNMEIEPWRFGGKPYFLIRMPNGSYQVFEFKGDKLKIKETIPVPPGDWILIKFSAGGSAGG [r6_476_TrROS]	1.81 ± 0.14	1.48 ± 0.04	1.98 ± 0.16
SAGGSAGGSAGGLPEGWVLKTETKTVKLKVKVKVDGKEYEFEVEVKVTRIELVPKEELESAGGSAGGSAGGS [r10_300_TrROS_Hall]	3.76 ± 0.11	3.04 ± 0.23	4.08 ± 0.2
SAGMMTVEELKEKLKEAAEKAGVKVKEIKITGPDGKEITVEVDLSEEQLKKLAEELGLEIDEVEVREPSAGG [r19_50_TrROS_Hall]	1.67 ± 0.2	1.3 ± 0.099	1.75 ± 0.092
SAGGSAGGSNLEEFLAKLPPDVEVVVDPETGTVLVRFPKTGTVAVFRVDAAEGKVELVEVKPVSAGGSAGGS [r12_82_TrMRF]	3.77 ± 0.073	3.88 ± 0.11	3.72 ± 0.049
SAGGSSMRKLIIIGPEGVTLERPIGPERTVEDVKAEWEAIGNVKFEEYPETGEVVVYLPEEALKEKSAGGSA [r2_164_JUSTAS]	1.22 ± 0.08	0.601 ± 0.054	1.47 ± 0.029
SAGGSAGGSMKKLKITFPPGMTEEELKKKIEELAKKLNLEVVKIKSIEYDKENKEVTITVEIKSAGGSAGGS [r12_131_TrROS_Hall]	3.87 ± 0.088	4.2 ± 0.17	3.77 ± 0.059
SAGGMTLEELKAKITKVEVEEREDGSLKLRLTIKVKNEDGSEEEIELTITLPEEEKNMSLEELLEKLLSAGG [r13_319_TrROS_Hall]	4.03 ± 0.13	4.26 ± 0.27	3.82 ± 0.12
SAGGSAEPPEVTVEVLSVEPTPDGYLVVERVVTTPDGVLVYRTVFRPPDGKPVGTDWALFPNPDALSAGGSA [r15_716_TrMRF]	2.95 ± 0.12	2.17 ± 0.23	3.53 ± 0.041
SMIKVGFNVTGLPEEAEAKAEELARELAEETGARVAGVELLEAVPHPDGGPETFNVLVTLEVPNPEAIEKSA [r9_302_TrMRF]	1.72 ± 0.093	0.542 ± 0.045	2.21 ± 0.051
SAGGSAGGKAEKITLEIPNTGKKVEIIKPENKAIITVYDKNGKPIKTIVVPPNFPGIEDAVKADSAGGSAGG [r6_424_TrMRF]	0.434 ± 0.12	-0.267 ± 0.068	0.773 ± 0.061
SMTAEEIAERLARALEEAGIRRVEVEVTVEYDPETDEVTVTVTIRVEPAPEAPPEEEEERREREEREAEESA [r9_440_TrROS_Hall]	2.31 ± 0.11	2.26 ± 0.057	2.43 ± 0.09
SEAEIKIKEVDENGYLVLEIKVPKEEVEKLREKLKELFPNAEIVEVKYDEETGEVTIIVRLPDGKLYEFKSA [r9_1164_TrROS_Hall]	1.06 ± 0.13	1.05 ± 0.076	1.05 ± 0.099
SAGGIKPDEPAIVLVKIPLPPGPNPEGGLEGPVLKTFPLEVGFPSLEELIEAVKELFPEGTEVEIIPSAGGS [r16_282_TrMRF]	0.455 ± 0.1	1.06 ± 0.042	-0.431 ± 0.13
SAGGSAGGKKFKPGQVVLDPKTKELYVIKGEVTVKEDGSLSIKVEKVKLPKPKKLTKEQLEKLKSAGGSAGG [r6_771_TrROS_Hall]	0.783 ± 0.16	0.687 ± 0.067	0.613 ± 0.23
SAGGMVTVSTPLGLGYSEEIKARMEEYVKAGDPEAAKELAQEYIDAKYPPKWPVEISFHENPAISKKSAGGS [r8_48_JUSTAS]	-0.396 ± 0.36	-0.769 ± 0.38	-0.209 ± 0.18
SAGGSAGGSAGYISIMIFFVLPDGYAIMVKYTFELPPNGNPKIENIEIHVMKLPPGEPIFSAGGSAGGSAGG [r11_517_TrROS]	5.13 ± 0.3	4.22 ± 0.3	5.35 ± 0.17
SKTIMFQFDSIEEIKDFIKEAIDDGDPDQKIRIEWYPPGGRRQEHEIESPEDIIDFLENGPYWIRVEIEPSA [r9_589_TrROS]	2.05 ± 0.12	1.68 ± 0.052	2.16 ± 0.047
SAGGMKTVEIEIPVPPGMSIEELVKKLLEELKKKKDIKEVEIEITLKDGSKIKIRVNKNGKIVKVEKLSAGG [r13_690_TrROS_Hall]	2.25 ± 0.15	1.73 ± 0.056	2.46 ± 0.11

Sequence	folding stability dG unfold [1] [kcal/mol]	folding stability dG unfold [2] [kcal/mol]	folding stability dG unfold [3] [kcal/mol]
SAGGMLIIRIEIEIEKNGKKEKKEILIVAKTEEEAKKAAEKIAKEKGLKIKKIEILPFKSLEELKKALSAGG [r13_949_TrROS_Hall]	3.11 ± 0.089	2.12 ± 0.061	3.45 ± 0.037
SAGGSAGGEDKYLVVEFTVPEGKAEEFIAEVKKKIPPNWKIERVEIVEKTEDGLYRVRVVLKPGSAGGSAGG [r6_340_TrMRF]	4.87 ± 0.086	4.5 ± 0.14	4.88 ± 0.049
SAGGSAGGSAAEVEVETLELEIDGVKITVTRVRNADGELLYFARIEVRPAPPPPPVSLEDLSAGGSAGGSAG [r3_68_TrROS_Hall]	3.23 ± 0.12	3.02 ± 0.093	3.25 ± 0.074
SAGGSVEKKLLEYDPATGNRLVEVTAKAKPEVVEELIAKGYDPSTISPLGDGTVRALLTIPPDEKLDSAGGS [r16_755_JUSTAS]	-0.248 ± 0.21	-0.295 ± 0.25	-0.332 ± 0.25
SAGGSAGGKTYIVKIVVKNKNGEELELTLEVETEEEAKEAAEELAKKLEEAGYEIVKVEIKKLPSAGGSAGG [r6_869_TrROS_Hall]	4.02 ± 0.2	3.64 ± 0.27	4.11 ± 0.14
SMITIPYNIQTDPSQAEKLAEEIAKEVEEKYGLKVVGVELVEWVPAPDGSESSVKVEIKIEAPDPKNILLSA [r9_302_JUSTAS]	0.705 ± 0.096	0.614 ± 0.031	0.713 ± 0.089
SIKIEPHPDGFFMLRFPDNGHKIMIRVDPEKGKVKIMFETPGQPVEQEIDPDEGTITIEFPNNKIEIPIKSA [r9_541_TrROS]	1.56 ± 0.23	2.42 ± 0.1	1.14 ± 0.24
SAGMSEEERKAAEEASKPPVKVETLTVTVLVEVDGKLYLVRATITRVVLPDGSIVTELKIEIIPLEDLSAGG [r19_11_TrROS_Hall]	3.88 ± 0.3	3.05 ± 0.21	4.26 ± 0.33
SAGGSAGGSAGSSMTTVTVTITDTGSGKTTTTELDVPVSEVQAVIDELSPSPTLTITVVQSAGGSAGGSAGG [r17_50_JUSTAS]	1.64 ± 0.043	1.84 ± 0.049	1.51 ± 0.028
SAGPWNIMVYDNGEPLEMIEIKGDEITIPLPPGPVRIAIFNPDDNGFVEEEVTPEDGTIEMKIPKGAKISAG [r5_469_TrROS]	-0.113 ± 0.38	-0.792 ± 0.44	0.207 ± 0.33
SAGGSAGGSMTILEEEVVPETGLVRILVKLPNGELLELEVDPSVGVTPVKVDGKPIFDVTVDPSAGGSAGGS [r12_789_JUSTAS]	1.19 ± 0.11	0.898 ± 0.038	1.3 ± 0.082
SNKIDKRIVSVTFYESLPNGSVKVNNLVFISTSDGKVRLVNAGEITIPLGDKTLSINIGEASSNVKLGKISA [r9_1113_TrMRF]	1.37 ± 0.041	1.01 ± 0.034	1.52 ± 0.032
SAGGHHMTIETFEEPDKLTVVVDGDDPEATREYLLQKVKEESSRKPVKVTFTEDPNGKLTITFDLKEESAGG [r13_158_JUSTAS]	-0.17 ± 0.34	-0.568 ± 0.26	-0.186 ± 0.34
SAGGSAGGMEVPPDQRVLVLDVEGTPEAIEAFAEELVRRGFDKPVAVVAVDPETGKVTIVVPEDSAGGSAGG [r6_652_TrMRF]	1.08 ± 0.11	0.771 ± 0.05	1.06 ± 0.1
GMMPEVKEYEVVVEVSLSDPSFASMTPEELAERAVAEVAAKPDFDPVEVEILSVKELPDGTYVVKVRITVRS [r1_484_JUSTAS]	3.91 ± 0.14	4.48 ± 0.2	3.15 ± 0.12
SMVYVFEVPEGDPEKAEELIRAKLEEEFGYKVESVATPGGGGARVVLVVDPVEDKAYAEVIPFAPDGSPASA [r9_173_TrMRF]	0.618 ± 0.16	-0.529 ± 0.21	1.15 ± 0.2
SAGGSAGGSAPKPKTKTIMFRFPGTPEDALDIAKEIANYFNDRGLEIEVERHPNGYIMITFPSAGGSAGGSA [r18_262_TrROS]	2.61 ± 0.065	2.11 ± 0.059	2.82 ± 0.034
SAGGSAGGSAGPKVVLVPVKVVQKLLGVKIPENSRVLVLLEKDKVKAVLVFPVLPSPENPSAGGSAGGSAGG [r11_616_TrMRF]	1.54 ± 0.17	1.26 ± 0.12	1.55 ± 0.07
SAGGSAGGSAGGEKEEEEVTVTIYNKETDKVIEITVPKGVTEEEARKKAKELAEELEKKKSAGGSAGGSAGG [r7_957_TrROS_Hall]	-0.00187 ± 0.19	0.29 ± 0.032	-0.316 ± 0.21
SAGGKEIEELAKKLAEELGVEVVKVEVEKVGPDTVKVTVTLKDGKKIKIEIKKKKDGSYEIKVEIEPSAGGS [r8_284_TrROS_Hall]	2.97 ± 0.3	3.08 ± 0.19	2.63 ± 0.22
SAGGKKEVILVIEIDLPESEEELLEEAERLAKELAELLGKEREVEVEVIEKDGKLIIVLRINGKEIVLSAGG [r13_845_TrROS_Hall]	2.52 ± 0.32	2.78 ± 0.23	2.68 ± 0.051
